Measured values as given in patent publication US20120094923A1 (published 2012).
Positions count from the first letter of the chain named. Names may count otherwise.

How the values were obtained:
[1] = molecular target: T1, BPTI-K15R/R17G (bovine, UniProt P00974 36-93); assay: co-crystal structure, PDB 3P92
[2] = molecular target: T2, BPTI-K15R/R17D (bovine, UniProt P00974 36-93); assay: co-crystal structure, PDB 3P95
Experimental: The heterodimeric complexes were further purified by HiLoad Superdex 75 gel filtration chromatography (GE Healthcare), exchanged into 10 mM Na acetate, pH 6.5, and concentrated to ˜3 mg/mL. […] Drops (4 μL) were prepared by mixing equal volumes of protein and reservoir solutions.

[3] = molecular target: T1, BPTI-K15R/R17G; assay: slow tight-binding inhibition kinetics
[4] = molecular target: bovine pancreatic trypsin inhibitor, wild type (bovine, UniProt P00974 36-93); assay: 1/Ki from competitive inhibition
[5] = molecular target: BPTI-K15R (bovine, UniProt P00974 36-93); assay: 1/Ki from competitive inhibition
[6] = molecular target: BPTI-R17M (bovine, UniProt P00974 36-93); assay: 1/Ki from competitive inhibition
[7] = molecular target: BPTI-K15R/R17M (bovine, UniProt P00974 36-93); assay: 1/Ki from competitive inhibition
[8] = molecular target: T1, BPTI-K15R/R17G; assay: 1/Ki from competitive inhibition
[9] = molecular target: T2, BPTI-K15R/R17D; assay: 1/Ki from competitive inhibition

B1: catalytically inactive mesotrypsin-S195A (enzyme)
chain: IVGGYTCEENSLPYQVSLNSGSHFCGGSLISEQWVVSAAHCYKTRIQVRLGEHNIKVLEGNEQFINAAKIIRHPKYNRDTLDNDIMLIKLSSPAVINARVSTISLPTAPPAAGTECLISGWGNTLSFGADYPDELKCLDAPVLTQAECKASYPGKITNSMFCVGFLEGGKDSCQRDAGGPVVCNGQLQGVVSWGHGCAWKNRPGVYTKVYNYVDWIKDTIAANS
notes: Used for the co-crystal structures; also called S195A mutant
B1: binds [1]; binds [2].

B2: recombinant human anionic trypsin (enzyme, UniProt P07478 24-247, looked up)
chain: IVGGYICEENSVPYQVSLNSGYHFCGGSLISEQWVVSAGHCYKSRIQVRLGEHNIEVLEGNEQFINAAKIIRHPKYNSRTLDNDILLIKLSSPAVINSRVSAISLPTAPPAAGTESLISGWGNTLSSGADYPDELQCLDAPVLSQAECEASYPGKITNNMFCVGFLEGGKDSCQGDSGGPVVSNGELQGIVSWGYGCAQKNRPGVYTKVYNYVDWIKDTIAANS
notes: mature
B2: binds [3].

B3: recombinant human mesotrypsin (enzyme)
chain: B1 chain with A177S
notes: also called PRSS3
B3 showed a Ka [4] of 74100 M⁻¹, a Ka [5] of 417000 M⁻¹ and a Ka [6] of 1.32e+06 M⁻¹. For the same binder, the Ka [7] was 4.76e+06 M⁻¹, the Ka [8] was 9.3e+07 M⁻¹ and the Ka [9] was 667000 M⁻¹.
